Source: PMC10090079

Tests used:
[1] = biological target: OsCas12f1 from Oscillibacter sp. (Oscillibacter sp.); assay: SEC; Cas12f1 RNP assembled in vitro at 4:3 molar ratio protein:sgRNA in buffer D (25 mM Tris-HCl pH 8.0, 150 mM NaCl, 2 mM DTT, 1 mM MgCl2) at 37 °C for 30 min; Superdex 200 Increase 10/300 equilibrated with buffer D; calibrated with Gel Filtration Standard (Bio-Rad); dimer in presence of sgRNA
[2] = biological target: RhCas12f1 from Ruminiclostridium herbifermentans (Ruminiclostridium herbifermentans); assay: as above

Substance	stoichiometry N [1]	stoichiometry N [2]
OsCas12f1 from Oscillibacter sp. (enzyme)	2	–
RhCas12f1 from Ruminiclostridium herbifermentans (enzyme)	–	2
